Results on 2 molecules are retold here after patent US20220153864A1 (Pieris, published 2022).

The target of test [1] is T1, recombinant human GPC3 (huGPC3) (R&D Systems) (human, UniProt P51654 25-559).
T1 construct: also called biotinylated huGPC3
Briefly: SPR (Biacore T200), binder captured by anti-human IgG Fc, huGPC3 as analyte, 1:1 model. The method, then:
(§1) The anti-human IgG Fc antibody (GE Healthcare) was immobilized on a CM5 sensor chip using standard amine chemistry: the carboxyl groups on the chip were activated using 1-ethyl-3-(3-dimethylaminopropyl)-carbodiimide (EDC) and N-hydroxysuccinimide (NHS). Subsequently, anti-human IgG Fc antibody solution (GE Healthcare) at a concentration of 25 μg/mL in 10 mM sodium acetate (pH 5.0) was applied at a flow rate of 5 μL/min until an immobilization level of 6000-10000 resonance units (RU) was achieved. Residual non-reacted NHS-esters were blocked by passing a solution of 1M ethanolamine across the surface. The reference channel was treated in an analogous manner. Subsequently, testing fusion proteins (SEQ ID NOs: 87 and 82 and CD137Ac1-Fusion 1) or the GPC3 antibody as included in the fusion protein (SEQ ID NOs: 81 and 82) at 0.2 μg/ml in HBS-EP+ buffer was captured by the anti-human IgG-Fc antibody at the chip surface for 180 s at a flow rate of 10 μL/min. After each capture step, the needle was washed.
(§2) The binding assay was carried out with a contact time of 180 s, a dissociation time of 900 s, and a flow rate of 30 μL/min. After each injection, the needle was cleaned with 40 mM NaOH+20% isopropanol. All measurements were performed at 25° C. […] Prior to the protein measurements, three startup cycles were performed for conditioning purposes. Data were evaluated with Biacore T200 Evaluation software (v2.0). Double referencing was used and the 1:1 binding model was used to fit the raw data.

Test [2] addresses T2, recombinant cynomolgus GPC3 (cyGPC3) (R&D Systems) (cynomolgus, UniProt A0A2K5VK50 24-558). The test can be described thus: SPR (Biacore T200), binder captured by anti-human IgG Fc, cyGPC3 as analyte, 1:1 model. The method, then: as §1, §2
For test [3], the target named is T3, human CD137 expressed on cells (Flp-In-CHO::huCD137; NFkB-luc2/CD137 Jurkat cells) (human, UniProt Q07011 24-255).
T3 construct: whole, on cells; also called human CD137-expressing cells
T3 sequence (Q07011 24-255): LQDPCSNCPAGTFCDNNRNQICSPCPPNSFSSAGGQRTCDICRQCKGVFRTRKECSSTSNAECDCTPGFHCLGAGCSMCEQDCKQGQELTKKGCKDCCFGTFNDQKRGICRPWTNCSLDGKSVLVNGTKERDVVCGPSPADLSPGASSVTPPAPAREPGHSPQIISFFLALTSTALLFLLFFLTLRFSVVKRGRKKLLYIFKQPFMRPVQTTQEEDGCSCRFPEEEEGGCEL
Briefly: flow cytometry, CHO cells transfected with human CD137, detection labelled anti-human IgG, GeoMean RL1-H [upper graph]. The method, then: (§3) For flow cytometric analysis, respective cell lines were incubated with an exemplary fusion protein (SEQ ID NOs: 87 and 82), the GPC3 antibody or the CD137 specific lipocalin mutein (Fc fusion) as included in the fusion protein (SEQ ID NOs: 81 and 82 and SEQ ID NO: 98, respectively), a reference CD137 antibody SEQ ID NOs: 26 and 27, or an isotype control (SEQ ID NOs: 24 and 25) and detected using a fluorescently labeled anti-human IgG antibody in FACS analysis as described in the following:
(§4) 5×10⁴ cells per well were incubated for 1 h in ice-cold PBS containing 5% fetal calf serum (PBS-FCS). A dilution series of the testing molecule were added to the cells and incubated for 1 h on ice. Cells were washed twice with PBS and then incubated with a goat anti-hlgG Alexa647-labeled antibody or goat anti-hlgG Alexa488-labeled antibody for 30 min on ice. Cells were subsequently washed and analyzed using iQue Flow cytometer (Intellicyte Screener). Mean geometric fluorescent signals were plotted and fitted with Graphpad software. The geometric means of the fluorescence intensity were used to calculate EC₅₀ values using a four-parameter logistic regression with bottom fixed to background.

For test [4], the target named is T4, human GPC3 expressed on cells (SK-Hep1::huGPC3; HepG2, Hep3B and MKN-45 tumor cells) (human, UniProt P51654 25-554).
T4 construct: whole, on cells; also called GPC3-positive tumor cells; human GPC3-expressing cells
T4 sequence (P51654 25-554 limits assumed): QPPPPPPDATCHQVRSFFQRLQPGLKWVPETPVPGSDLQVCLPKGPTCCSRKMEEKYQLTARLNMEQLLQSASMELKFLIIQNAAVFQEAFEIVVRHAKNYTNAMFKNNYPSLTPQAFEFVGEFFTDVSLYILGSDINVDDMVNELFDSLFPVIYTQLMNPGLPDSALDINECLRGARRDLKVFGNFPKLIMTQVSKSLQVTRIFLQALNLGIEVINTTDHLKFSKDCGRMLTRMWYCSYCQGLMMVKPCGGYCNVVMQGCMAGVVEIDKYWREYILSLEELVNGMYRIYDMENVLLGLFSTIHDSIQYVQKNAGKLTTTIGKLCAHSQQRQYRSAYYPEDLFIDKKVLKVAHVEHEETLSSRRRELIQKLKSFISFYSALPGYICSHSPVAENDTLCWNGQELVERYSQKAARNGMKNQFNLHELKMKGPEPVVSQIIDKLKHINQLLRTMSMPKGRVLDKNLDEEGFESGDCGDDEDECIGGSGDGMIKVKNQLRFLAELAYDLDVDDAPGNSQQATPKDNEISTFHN
Briefly: flow cytometry on SK-Hep1::huGPC3 cells, anti-human IgG detection. On the procedure:
as §3, §4

Test [5] concerns the target T4, human GPC3 expressed on cells …. The test can be described thus: flow cytometry on MKN-45 tumor cells (GPC3 moderate). On the procedure: as §4
(§5) For flow cytometric analysis, tumor cell lines with different GPC3 expression levels (high to moderate expression: HepG2>Hep3B>MKN-45) and GPC3 negative cell line NCI-N87 were incubated with an exemplary fusion protein SEQ ID NOs: 87 and 82, the GPC3 antibody or the CD137 specific lipocalin mutein (Fc fusion) as included in the fusion protein (SEQ ID NOs: 81 and 82 and SEQ ID NO: 98, respectively), a reference CD137 antibody SEQ ID NOs: 26 and 27, or an isotype control (SEQ ID NO: 24 and 25), and detected using a fluorescently labeled anti-human IgG antibody as described in Example 6.

For test [6], the target named is T2, recombinant cynomolgus GPC3 (cyGPC3) …. Briefly: ELISA, cyGPC3 coated. On the procedure:
(§6) Recombinant huGPC3 (R&D Systems) at the concentration of 1 μg/mL in PBS was coated overnight on microtiter plates at 4° C. After five washes with 100 μL PBS-0.05% T (PBS supplemented with 0.05% (v/v) Tween 20), the plates were blocked with 2% BSA (w/v) in PBS-0.1% T (PBS-0.1% T-2% BSA) for 1 h at room temperature. After washing with 100 μL PBS-0.05% T (PBS supplemented with 0.05% (v/v) Tween 20) five times, exemplary fusion proteins (SEQ ID NOs: 87 and […] and CD137Ac1-Fusion 1 to 7) or the GPC3 antibody as include in the fusion proteins (SEQ ID NOs: 81 and 82) at different concentrations were added to the wells and incubated for 1 h at room temperature, followed by another wash step. Bound molecules under study were detected by incubation with 1:5000 diluted anti-human IgG Fc-HRP (Jackson Laboratory) in PBS-0.1% T-2% BSA. After an additional wash step, fluorogenic HRP substrate (QuantaBlu, Thermo) was added to each well and the fluorescence intensity was detected using a fluorescence microplate reader.
The same ELISA setup was also employed to determine the binding potency of fusion proteins to cynomolgus GPC3 and huCD137, where recombinant cyGPC3 (R&D Systems) or huCD137-His (recombinant human CD137 with C-terminal polyhistidine tag, R&D Systems) was instead coated on a microtiter plate. The testing agents were similarly titrated and bound agents were detected via anti-NGAL-HRP. […]

Test [7] has as its target T5, huCD137-His (recombinant human CD137 with C-terminal polyhistidine tag, R&D Systems) (human, UniProt Q07011 24-186).
T5 construct: also called biotinylated huCD137-His; not shown: C-terminal polyhistidine tag
Briefly: ELISA, huCD137-His coated, binder titrated to 100 nM, detection anti-NGAL-HRP per paragraph 342 (the antibody itself carries no lipocalin mutein) [upper graph].

The target of test [8] is T4, human GPC3 expressed on cells …. Briefly: flow cytometry on HepG2 tumor cells (GPC3 high). On the procedure:
as §4, §5

Test [9] has the same target. The test can be described thus: flow cytometry on Hep3B tumor cells (GPC3 positive). On the procedure:
as §4, §5

In test [10] the target is T1, recombinant human GPC3 (huGPC3) (R&D …). The test can be described thus: ELISA, huGPC3 coated, detection anti-human IgG Fc-HRP. The method, then:
as §6
Exemplary results are depicted in FIG. 2A-2D, together with the fit curves resulting from a 1:1 binding sigmoidal fit, where the EC₅₀ value and the maximum signal were free parameters, and the slope was fixed to unity.

The target of test [11] is T4, human GPC3 expressed on cells …. Briefly: flow cytometry, SK-Hep1 cells transfected with human GPC3, detection labelled anti-human IgG, GeoMean RL1-H [upper graph]. The method, then:
as §3, §4

Test [12] has the same target. Briefly: flow cytometry, SK-Hep1 cells transfected with human GPC3, detection labelled anti-human IgG, GeoMean BL1-H [lower graph]. On the procedure:
as §3, §4

Test [13] addresses T3, human CD137 expressed on cells …. The test can be described thus: cell-based or functional assay.
Test [14] shares this target. The test can be described thus: flow cytometry on Flp-In-CHO::huCD137 cells, anti-human IgG detection. On the procedure:
as §3, §4

T1 sequence (P51654 25-559 limits assumed): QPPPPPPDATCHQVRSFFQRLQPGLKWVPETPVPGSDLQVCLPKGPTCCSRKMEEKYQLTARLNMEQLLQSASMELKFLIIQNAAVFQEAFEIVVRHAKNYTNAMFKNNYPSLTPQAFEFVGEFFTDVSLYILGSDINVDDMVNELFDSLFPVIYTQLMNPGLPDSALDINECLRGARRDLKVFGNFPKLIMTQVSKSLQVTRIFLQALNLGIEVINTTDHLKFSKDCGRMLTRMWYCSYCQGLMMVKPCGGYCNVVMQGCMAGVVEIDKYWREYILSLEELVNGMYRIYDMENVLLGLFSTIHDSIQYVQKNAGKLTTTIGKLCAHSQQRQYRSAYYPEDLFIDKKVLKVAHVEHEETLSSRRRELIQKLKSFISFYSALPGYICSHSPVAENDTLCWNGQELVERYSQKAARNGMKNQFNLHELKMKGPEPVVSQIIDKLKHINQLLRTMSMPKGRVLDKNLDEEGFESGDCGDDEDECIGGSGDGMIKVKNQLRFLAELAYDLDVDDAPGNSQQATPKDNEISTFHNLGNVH

B1: GPC3 antibody as included in the fusion protein (SEQ ID NOs: 81 and 82) (antibody, human IgG4 S228P, kappa, F234A L235A, V domains shown)
VH: QVQLVQSGAEVKKPGASVKVSCKASGYTFTDYEMHWVRQAPGQGLEWMGALDPKTGDTAYSQKFKGRVTLTADKSTSTAYMELSSLTSEDTAVYYCTRFYSYTYWGQGTLVTLVS
VL: DVVMTQSPLSLPVTPGEPASISCRSSQSLVHSNRNTYLHWYLQKPGQSPQLLIYKVSNRFSGVPDRFSGSGSGTDFTLKISRVEAEDVGVYYCSQNTHVPPTFGQGTKLEIKR
notes: also called GPC3 specific antibody
As for B1, the dissociation constant Kd in test [1] came to 0.686 nM; in [2] it was 0.737 nM. In addition, the koff in test [1] came to 0.000248 s⁻¹; in [2], 0.000151 s⁻¹. Also, the kon in test [1] amounted to 361000 M⁻¹ s⁻¹; in [2], 205000 M⁻¹ s⁻¹. In addition, the binding result in [3] and in test [7] was “no binding (tested: 100 nM)” in each case. For the same molecule, the EC50 in [4] was determined as 19.9 nM; in test [5], 1.46 nM; in [6], 0.23 nM; in [8], 16.7 nM; in test [9] it was 6.35 nM; in [10], 0.13 nM. Besides, in test [11], the “EC50 (read off the curve)” value is about 5 nM.

B2: reference CD137 antibody (SEQ ID NOs: 26 and 27) (antibody, human IgG4 S228P, kappa, V domains shown)
VH: QVQLQQWGAGLLKPSETLSLTCAVYGGSFSGYYWSWIRQSPEKGLEWIGEINHGGYVTYNPSLESRVTISVDTSKNQFSLKLSSVTAADTAVYYCARDYGPGNYDWYFDLWGRGTLVTVSS
VL: EIVLTQSPATLSLSPGERATLSCRASQSVSSYLAWYQQKPGQAPRLLIYDASNRATGIPARFSGSGSGTDFTLTISSLEPEDFAVYYCQQRSNWPPALTFGGGTKVEIKR
For B2, the binding result in test [12] was “no binding (tested: 500 nM)”. Also, in test [13], the “EC50, CD137 Bioassay (NFkB-luc2/CD137 Jurkat cells co-cultured with Hep3B)” value was determined as 1.39 nM; the “EC50, CD137 Bioassay (NFkB-luc2/CD137 Jurkat cells co-cultured with HepG2)” value came to 0.94 nM; the “EC50, CD137 Bioassay (NFkB-luc2/CD137 Jurkat cells co-cultured with MKN-45)” value stood at 1.47 nM; the “EC50, CD137 Bioassay (NFkB-luc2/CD137 Jurkat cells co-cultured with NCI-N87)” value was 1.67 nM. The molecule further registered an EC50 in [14] of 9.61 nM.
